US20120114652A1 (AbbVie / Abbott, published 2012)
Residue numbers refer to the chain shown, from its start.

T1: mouse PAI-1 (mouse, UniProt P22777 24-401)
T1 sequence: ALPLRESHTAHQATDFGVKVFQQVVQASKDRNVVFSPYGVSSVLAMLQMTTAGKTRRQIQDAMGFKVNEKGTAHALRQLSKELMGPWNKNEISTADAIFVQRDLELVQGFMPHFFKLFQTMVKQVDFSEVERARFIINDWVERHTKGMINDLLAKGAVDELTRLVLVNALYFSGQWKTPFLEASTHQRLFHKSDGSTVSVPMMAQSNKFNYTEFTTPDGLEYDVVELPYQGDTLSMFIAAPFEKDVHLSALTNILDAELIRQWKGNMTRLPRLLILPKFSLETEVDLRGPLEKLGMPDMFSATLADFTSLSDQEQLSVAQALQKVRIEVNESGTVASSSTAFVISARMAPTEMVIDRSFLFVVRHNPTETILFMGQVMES

T2: rat PAI-1 (rat, UniProt P20961 24-402)
T2 sequence: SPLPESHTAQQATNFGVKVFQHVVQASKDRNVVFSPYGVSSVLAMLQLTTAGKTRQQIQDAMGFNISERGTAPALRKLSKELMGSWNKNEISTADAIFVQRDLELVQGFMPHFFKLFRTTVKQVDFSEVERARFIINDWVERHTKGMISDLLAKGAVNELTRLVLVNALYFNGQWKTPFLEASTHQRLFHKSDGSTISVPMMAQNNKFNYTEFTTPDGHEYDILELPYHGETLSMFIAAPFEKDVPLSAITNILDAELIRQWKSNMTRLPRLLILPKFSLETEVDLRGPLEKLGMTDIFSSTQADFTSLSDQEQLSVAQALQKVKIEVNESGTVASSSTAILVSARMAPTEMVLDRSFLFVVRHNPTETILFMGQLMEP

B1: Antibody 23, scFv (scFv, V domains shown)
VH: QVQLQQSGAEVKKPGSSVKVSCKASGGTFSSYAISWVRQAPGQGLEWMGGIIPTFGTANYAQKFQSRVTITADESTSTAYMELSGLRSEDTAVYYCAREKRQWLEGHFDYWGRGTPVTVSS
VL: DIQMTQSPSFLSASIGDRVTITCRASEGIYHSLAWYQQKPGKAPKLLIYRASSLASGAPSRFSGSGSGTDFTLTISSLQPDDFATYYCQQYSNYPLTFGGGTKLEIK
B2: Antibody 24, scFv (scFv, V domains shown)
VH: B1 VH with G56V, S66G, T69S
VL: B1 VL with S32A
B3: Antibody 25, scFv (scFv, V domains shown)
VH: B1 VH with S66G, K100R, R113Q
VL: B1 VL with G28S, S32E, R50K, D70A
B4: Antibody 26, scFv (scFv, V domains shown)
VH: B1 VH with S16T, T54I, S66G, G85S
VL: B1 VL with S32T
B5: Antibody 02, scFv (scFv, V domains shown)
VH: B1 VH with Q5V, S66G, G85S, P116L
VL: B1 VL with F10T, I15V, R50K, A58V, D70E, N93D, L104V
B6: Antibody 03, scFv (scFv, V domains shown)
VH: B1 VH with S66G
VL: B1 VL with H31R, R50K, S77G
B7: Antibody 04, scFv (scFv, V domains shown)
VH: B1 VH with Q3R, Q65R, S66G, D73N, H107R, P116L
VL: B1 VL with V19I, Y49H, S52T, A58T, S63G, T72A
B8: Antibody 05, scFv (scFv, V domains shown)
VH: B1 VH with G56S, Q65R, S66G
VL: B1 VL with S32Q
B9: Antibody 06, scFv (scFv, V domains shown)
VH: B1 VH with S66G
VL: B1 VL with S32E, G100R
B10: Antibody 07, scFv (scFv, V domains shown)
VH: B1 VH with M48V, S66G
VL: B1 VL with T5A, S32E
B11: Antibody 10, scFv (scFv, V domains shown)
VH: B1 VH with S66G, G85S
VL: B1 VL with T20A, K103R

target: human PAI-1, active, wild-type, non-glycosylated (E. coli-derived) (human, UniProt P05121 24-402); test: cell-based or functional assay

Going from B1 to B2, the IC50 chromogenic rises from 1.6 nM to 3.2 nM (2-fold).

Compared with B3, B4 is 3.3-fold lower in IC50 chromogenic: 13.1 nM for the first, 4 nM for the second.

First: B5
Second: B6
The IC50 chromogenic of the first is 3-fold lower: 0.6 nM for the first, 1.8 nM for the second.

B7 and B8 are within 1.5-fold of each other in IC50 chromogenic: 6.6 nM for the first, 5 nM for the second.

First: B9
Second: B10
The IC50 chromogenic of the first is 2.5-fold lower: 74.6 nM for the first, 187 nM for the second.

B11 was tested, and the IC50 chromogenic was 2.2 nM.

target: T1, mouse PAI-1; test: cell-based or functional assay

Going from B1 to B2, the IC50 chromogenic falls from 376 nM to 140 nM (2.7-fold).

B3 and B4 are within 1.5-fold of each other in IC50 chromogenic: 172 nM for the first, 211 nM for the second.

Going from B5 to B6, the IC50 chromogenic falls from 553 nM to 54.9 nM (10-fold).

First: B7
Second: B8
The IC50 chromogenic of the first is 2.7-fold lower: 264 nM for the first, 718 nM for the second.

First: B9
Second: B10
The IC50 chromogenic of the first is 3-fold lower: 48.2 nM for the first, 143 nM for the second.

In the case of B11, the IC50 chromogenic is reported as 334 nM.

Compared with B1, B2 is lower in IC50 ratio mouse/human: 229 for the first, 43.3 for the second.

First: B3
Second: B4
The IC50 ratio mouse/human of the first is lower: 13.1 for the first, 52.9 for the second.

Compared with B5, B6 is lower in IC50 ratio mouse/human: 929 for the first, 30.5 for the second.

First: B7
Second: B8
The IC50 ratio mouse/human of the first is lower: 39.9 for the first, 144 for the second.

Compared with B9, B10 is higher in IC50 ratio mouse/human: 0.6 for the first, 0.8 for the second.

In the case of B11, the IC50 ratio mouse/human is reported as 149.

target: T2, rat PAI-1; test: cell-based or functional assay

Going from B1 to B2, the IC50 chromogenic falls from 376 nM to 127 nM (3-fold).

B3 and B4 are within 1.5-fold of each other in IC50 chromogenic: 322 nM for the first, 245 nM for the second.

First: B5
Second: B6
The IC50 chromogenic of the first is 1.8-fold higher: 530 nM for the first, 297 nM for the second.

Compared with B7, B8 is 2.5-fold higher in IC50 chromogenic: 340 nM for the first, 860 nM for the second.

First: B9
Second: B10
The IC50 chromogenic of the first is 2.5-fold lower: 37.1 nM for the first, 91 nM for the second.

Work on B11 yielded an IC50 chromogenic of 296 nM.

Going from B1 to B2, the IC50 ratio rat/human falls from 229 to 39.3.

Going from B3 to B4, the IC50 ratio rat/human rises from 24.6 to 61.4.

First: B5
Second: B6
The IC50 ratio rat/human of the first is higher: 891 for the first, 165 for the second.

Compared with B7, B8 is higher in IC50 ratio rat/human: 51.4 for the first, 172 for the second.

B9 and B10 are the same in IC50 ratio rat/human: 0.5 for the first, 0.5 for the second.

With B11 the IC50 ratio rat/human was 132.

target: cynomolgus PAI-1 (cynomolgus, UniProt P05121 24-402 (human entry), limits assumed); test: cell-based or functional assay

Going from B1 to B2, the IC50 chromogenic rises from 0.5 nM to 1.1 nM (2.2-fold).

First: B3
Second: B4
The IC50 chromogenic of the first is 3.8-fold higher: 4.6 nM for the first, 1.2 nM for the second.

Going from B5 to B6, the IC50 chromogenic falls from 1.1 nM to 0.1 nM (11-fold).

First: B7
Second: B8
The IC50 chromogenic of the first is 4.2-fold higher: 2.1 nM for the first, 0.5 nM for the second.

First: B9
Second: B10
The IC50 chromogenic of the first is 3.7-fold lower: 31.6 nM for the first, 117 nM for the second.

Binder B11 has an IC50 chromogenic of 0.5 nM.

B1 and B2 are the same in IC50 ratio cyno/human: 0.3 for the first, 0.3 for the second.

Going from B3 to B4, the IC50 ratio cyno/human falls from 0.4 to 0.3.

First: B5
Second: B6
The IC50 ratio cyno/human of the first is higher: 1.8 for the first, 0.1 for the second.

First: B7
Second: B8
The IC50 ratio cyno/human of the first is higher: 0.3 for the first, 0.1 for the second.

First: B9
Second: B10
The IC50 ratio cyno/human of the first is lower: 0.4 for the first, 0.6 for the second.

B11 was tested, and the IC50 ratio cyno/human was 0.2.
